Measured values taken from IntAct's records for PubMed 19559006.

B1: Kinesin-like protein KIF21A (Homo sapiens), Q7Z4S6 (parent)
chain: MLGAPDESSVRVAVRIRPQLAKEKIEGCHICTSVTPGEPQVFLGKDKAFTFDYVFDIDSQQEQIYIQCIEKLIEGCFEGYNATVFAYGQTGAGKTYTMGTGFDVNIVEEELGIISRAVKHLFKSIEEKKHIAIKNGLPAPDFKVNAQFLELYNEEVLDLFDTTRDIDAKSKKSNIRIHEDSTGGIYTVGVTTRTVNTESEMMQCLKLGALSRTTASTQMNVQSSRSHAIFTIHVCQTRVCPQIDADNATDNKIISESAQMNEFETLTAKFHFVDLAGSERLKRTGATGERAKEGISINCGLLALGNVISALGDKSKRATHVPYRDSKLTRLLQDSLGGNSQTIMIACVSPSDRDFMETLNTLKYANRARNIKNKVMVNQDRASQQINALRSEITRLQMELMEYKTGKRIIDEEGVESINDMFHENAMLQTENNNLRVRIKAMQETVDALRSRITQLVSDQANHVLARAGEGNEEISNMIHSYIKEIEDLRAKLLESEAVNENLRKNLTRATARAPYFSGSSTFSPTILSSDKETIEIIDLAKKDLEKLKRKEKRKKKRLQKLEESNREERSVAGKEDNTDTDQEKKEEKGVSERENNELEVEESQEVSDHEDEEEEEEEEEDDIDGGESSDESDSESDEKANYQADLANITCEIAIKQKLIDELENSQKRLQTLKKQYEEKLMMLQHKIRDTQLERDQVLQNLGSVESYSEEKAKKVRSEYEKKLQAMNKELQRLQAAQKEHARLLKNQSQYEKQLKKLQQDVMEMKKTKVRLMKQMKEEQEKARLTESRRNREIAQLKKDQRKRDHQLRLLEAQKRNQEVVLRRKTEEVTALRRQVRPMSDKVAGKVTRKLSSSDAPAQDTGSSAAAVETDASRTGAQQKMRIPVARVQALPTPATNGNRKKYQRKGLTGRVFISKTARMKWQLLERRVTDIIMQKMTISNMEADMNRLLKQREELTKRREKLSKRREKIVKENGEGDKNVANINEEMESLTANIDYINDSISDCQANIMQMEEAKEEGETLDVTAVINACTLTEARYLLDHFLSMGINKGLQAAQKEAQIKVLEGRLKQTEITSATQNQLLFHMLKEKAELNPELDALLGHALQDLDSVPLENVEDSTDEDAPLNSPGSEGSTLSSDLMKLCGEVKPKNKARRRTTTQMELLYADSSELASDTSTGDASLPGPLTPVAEGQEIGMNTETSGTSAREKELSPPPGLPSKIGSISRQSSLSEKKIPEPSPVTRRKAYEKAEKSKAKEQKHSDSGTSEASLSPPSSPPSRPRNELNVFNRLTVSQGNTSVQQDKSDESDSSLSEVHRSSRRGIINPFPASKGIRAFPLQCIHIAEGHTKAVLCVDSTDDLLFTGSKDRTCKVWNLVTGQEIMSLGGHPNNVVSVKYCNYTSLVFTVSTSYIKVWDIRDSAKCIRTLTSSGQVTLGDACSASTSRTVAIPSGENQINQIALNPTGTFLYAASGNAVRMWDLKRFQSTGKLTGHLGPVMCLTVDQISSGQDLIITGSKDHYIKMFDVTEGALGTVSPTHNFEPPHYDGIEALTIQGDNLFSGSRDNGIKKWDLTQKDLLQQVPNAHKDWVCALGVVPDHPVLLSGCRGGILKVWNMDTFMPVGEMKGHDSPINAICVNSTHIFTAADDRTVRIWKARNLQDGQISDTGDLGEDIASN
partner: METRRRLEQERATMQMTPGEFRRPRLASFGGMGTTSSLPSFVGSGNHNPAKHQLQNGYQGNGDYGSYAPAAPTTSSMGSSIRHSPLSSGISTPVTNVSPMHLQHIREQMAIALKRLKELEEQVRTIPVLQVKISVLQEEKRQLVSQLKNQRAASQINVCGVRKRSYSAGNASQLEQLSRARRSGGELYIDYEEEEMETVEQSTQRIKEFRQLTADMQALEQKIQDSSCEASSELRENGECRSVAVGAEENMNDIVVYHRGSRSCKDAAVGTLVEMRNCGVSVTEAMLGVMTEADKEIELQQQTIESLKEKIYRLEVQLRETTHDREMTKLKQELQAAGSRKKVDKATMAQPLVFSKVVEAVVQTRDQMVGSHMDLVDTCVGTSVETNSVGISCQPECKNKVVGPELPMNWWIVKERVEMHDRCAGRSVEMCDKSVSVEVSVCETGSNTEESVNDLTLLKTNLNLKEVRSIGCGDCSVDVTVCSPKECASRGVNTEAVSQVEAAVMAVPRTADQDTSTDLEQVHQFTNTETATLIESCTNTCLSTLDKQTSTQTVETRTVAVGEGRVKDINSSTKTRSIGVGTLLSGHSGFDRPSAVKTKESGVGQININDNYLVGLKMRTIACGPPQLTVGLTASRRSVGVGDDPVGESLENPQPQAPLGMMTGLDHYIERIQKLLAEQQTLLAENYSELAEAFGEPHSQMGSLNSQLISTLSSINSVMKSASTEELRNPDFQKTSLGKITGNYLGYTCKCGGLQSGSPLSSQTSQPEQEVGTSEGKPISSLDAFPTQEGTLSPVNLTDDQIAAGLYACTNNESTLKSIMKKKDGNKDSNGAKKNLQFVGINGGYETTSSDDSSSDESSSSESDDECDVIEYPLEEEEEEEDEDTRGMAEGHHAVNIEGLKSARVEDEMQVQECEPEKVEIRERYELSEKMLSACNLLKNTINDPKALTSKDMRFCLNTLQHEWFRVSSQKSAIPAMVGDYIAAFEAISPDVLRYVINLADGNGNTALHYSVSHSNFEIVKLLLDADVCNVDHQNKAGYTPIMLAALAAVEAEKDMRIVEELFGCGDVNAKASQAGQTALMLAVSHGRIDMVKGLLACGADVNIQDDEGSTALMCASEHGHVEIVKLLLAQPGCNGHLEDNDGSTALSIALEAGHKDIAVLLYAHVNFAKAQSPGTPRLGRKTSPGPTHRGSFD

Variants of: B1
Conditions: with KANK1, Q14678-2

effect of a mutation on the interaction | Variant
increasing interaction | M947T
increasing interaction | R954W
